This is an account of results in patent publication US20240261423A1.

This experiment addresses Insulin. The experiment in a line: low stringency direct binding ELISA on coated insulin, antibody dilutions from 10 µg/mL. Background: In an ELISA, binding on a coated surface is turned into a signal by an enzyme label.

Sequence of Insulin (P01308 25-54, chain 1 of 2): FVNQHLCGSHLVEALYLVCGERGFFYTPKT
Sequence of Insulin (P01308 90-110, chain 2 of 2): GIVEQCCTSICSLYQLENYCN

Turning to “Negative Control (polyreactivity assay) (antibody)”, the Polyreactivity Score was determined as 5.03.

Regarding “Positive Control (polyreactivity assay) (antibody)”, the Polyreactivity Score came out at 12.2.
